In FireProtDB (doi:10.1021/bi0268697):
Several values for one entry are separate records, joined by “and”; a condition that tells them apart may be missing. Equal entries are not always repeated.

B1: Barstar, P11540 (parent)
chain: MKKAVINGEQIRSISDLHQTLKKELALPEYYGENLDALWDCLTGWVEYPLVLEWRQFEQSKQLTENGAESVLQVFREAKAEGCDITIILS

Variants of: B1
Conditions: Bacillus amyloliquefaciens; pH 8; 25 °C; Urea; CD; Tris 20 mM; reversible: yes; structure 1BTA; whole UniProt chain shown

| Variant | denaturant midpoint (higher = more stable) | unfolding free energy |
| --- | --- | --- |
| MKKAVINGEQIRSISDLHQTLKKELALPEYYGENLDALFDALTGFVEYPLVLEWRQFEQSKQCTENGAESVLQVFREAKAEGADITIILS | 3.3 M | 4 kcal/mol |
| MKKAVINGEQIRSISDLHQTLKKELCLPEYYGENLDALFDALTGFVEYPLVLEWRQFEQSKQLTENGAESVLQVFREAKAEGADITIILS | 3.5 M and 3.4 M | 4.4 kcal/mol and 4.3 kcal/mol |
| MKKAVINGEQIRSISDLHQTLKKELALPEYYGENLDALFDCLTGFVEYPLVLEWRQFEQSKQLTENGAESVLQVFREAKAEGADITIILS | 3.3 M and 3.7 M | 4.2 kcal/mol and 4.7 kcal/mol |
| MKKAVINGEQIRTISDLHQTLKKELALPEYYGENLDALFDALTGFVEYPLVLEWRQFEQSKQLTENGAESVLQVFREAKAEGCDITIILS | 3.4 M and 3.5 M | 4.5 kcal/mol |
